In PMC8284803:
Where two headings read alike, the source gives them in different places.

B1: HJ (Holliday junction) (structured_DNA)
DNA 1: CTAGTATAGAGCCGGCGCGCCATGTCTAGATAGCGTTAGGTCTGCCGAATAGTACTACTCGGATCCCGAGCGAACCACGC
DNA 2: GCGTGGTTCGCTCGGGATCCGAGTAGTACTATTCGGCAGAGGATTCGAATAGGCCTAATCGAATTCCGCCATCGATGCAC
DNA 3: GTGCATCGATGGCGGAATTCGATTAGGCCTATTCGAATCCAGACGCGAGTAGATCTTCACGGTACCCGCGGTTACCCGTG
DNA 4: CACGGGTAACCGCGGGTACCGTGAAGATCTACTCGCGTCTCCTAACGCTATCTAGACATGGCGCGCCGGCTCTATACTAG
B2: 80mer with 10 nt gap (mixed)
DNA 1: B1 DNA 1
DNA 2: GCGTGGTTCGCTCGGGATCCGAGTAGTACTATTCG
DNA 3: CGCTATCTAGACATGGCGCGCCGGCTCTATACTAG
B3: 80mer with 20 nt gap (mixed)
DNA 1: B1 DNA 1
DNA 2: GCGTGGTTCGCTCGGGATCCGAGTAGTACT
DNA 3: TCTAGACATGGCGCGCCGGCTCTATACTAG
B4: 80mer with 5 nt gap (mixed)
DNA 1: B1 DNA 1
DNA 2: GCGTGGTTCGCTCGGGATCCGAGTAGTACTATTCGG
DNA 3: CTAACGCTATCTAGACATGGCGCGCCGGCTCTATACTAG
B5: 80mer with 40 nt gap (mixed)
DNA 1: B1 DNA 1
DNA 2: GCGTGGTTCGCTCGGGATCC
DNA 3: GCGCGCCGGCTCTATACTAG
B6: gHJ (gapped HJ) (structured_DNA)
DNA 1: B1 DNA 1
DNA 2: B1 DNA 2
DNA 3: B1 DNA 3
DNA 4: CACGGGTAACCGCGGGTACCGTGAAGATCTACTCGCGTCTCCTAA
DNA 5: CCGGCTCTATACTAG

How the values were obtained:
Experiment in all cases: EMSA
[1] = target: T1, hMLH1 (hMutLγ subunit);hMLH3 (hMutLγ subunit) (Homo sapiens;Homo sapiens, UniProt P40692;Q9UHC1 1-756;1-1453, |)
[2] = target: hMSH4 (hMutSγ subunit);hMSH5 (hMutSγ subunit) (Homo sapiens;Homo sapiens, UniProt O15457;O43196 1-936;1-834, |)
[3] = target: T1, hMLH1 (hMutLγ subunit);hMLH3 (hMutLγ …); remark: listed apart in the source
[4] = target: T1, hMLH1 (hMutLγ subunit);hMLH3 (hMutLγ …); remark: listed apart in the source

Row | Binder | Kd [1] | binding result [3] | other results
1 | B1 | ~38 nM |  | binding result [2]: binds
2 | B2 |  | no binding | 
3 | B3 |  | binds | 
4 | B4 |  | no binding | 
5 | B5 |  |  | binding result [4]: binds
6 | B6 | ~16 nM |  | 
